Measured values as given in patent US20200017598A1.

Molecular target: mouse C5aR (mouse) (UniProt P30993)
Assay: cell-based or functional assay

Chain of UniProt P30993 (P30993 other isoform, or with tags, fused parts or gaps): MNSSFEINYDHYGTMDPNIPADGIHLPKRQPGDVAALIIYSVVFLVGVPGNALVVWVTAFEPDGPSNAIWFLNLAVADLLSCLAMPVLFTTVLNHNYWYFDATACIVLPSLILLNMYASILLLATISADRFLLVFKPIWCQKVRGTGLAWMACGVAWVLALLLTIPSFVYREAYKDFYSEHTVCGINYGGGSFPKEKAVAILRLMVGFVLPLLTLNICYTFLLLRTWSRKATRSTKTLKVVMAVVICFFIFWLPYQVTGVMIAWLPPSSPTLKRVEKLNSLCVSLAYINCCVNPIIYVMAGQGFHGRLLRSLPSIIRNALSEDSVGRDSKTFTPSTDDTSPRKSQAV

inhibition of C5a-induced CD11b up-regulation on neutrophils (live Ly6G+ cells) in mouse whole blood stimulated with recombinant mouse C5a, flow cytometry: 0.6 µg/mL
Substance: Anti-mouse C5aR mAb m20/70 (20/70 variable regions on mouse kappa and mouse IgG2a.1 constant regions) (from UniProt P01863 1-330) (antibody)
